The text below walks through data of patent US20230147852A1 (SORRENTO THERAPEUTICS, published 2023).

Assay [1] has as its target T1, human LAG3 on LAG3/NFAT-Luc reporter Jurkat cells (human, UniProt P18627).
T1 construct: on the surface of transfected Jurkat cells; also called human LAG3 expressed on Jurkat cells (BPS Biosciences; catalogue No. 71278)
T1 sequence (antigen, looked up): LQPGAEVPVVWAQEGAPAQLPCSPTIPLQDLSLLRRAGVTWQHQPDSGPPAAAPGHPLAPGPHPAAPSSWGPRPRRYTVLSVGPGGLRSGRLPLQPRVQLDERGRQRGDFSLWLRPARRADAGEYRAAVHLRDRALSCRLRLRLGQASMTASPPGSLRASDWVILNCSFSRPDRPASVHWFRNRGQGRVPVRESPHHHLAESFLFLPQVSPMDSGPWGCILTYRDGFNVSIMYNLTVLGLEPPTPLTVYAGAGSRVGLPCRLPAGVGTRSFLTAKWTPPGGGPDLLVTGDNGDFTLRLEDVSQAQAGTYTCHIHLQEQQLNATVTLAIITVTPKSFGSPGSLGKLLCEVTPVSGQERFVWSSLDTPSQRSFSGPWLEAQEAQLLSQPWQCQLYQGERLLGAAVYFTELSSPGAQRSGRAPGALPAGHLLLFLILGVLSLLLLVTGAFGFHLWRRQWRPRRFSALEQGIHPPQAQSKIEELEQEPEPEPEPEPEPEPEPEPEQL
The assay is described as follows: Flow cytometry on human LAG3/NFAT-Luc Jurkat cells, ΔMFI = LAG3 Jurkat minus wild-type Jurkat, AF647 anti-human IgG. For orientation: Flow cytometry measures light scatter and fluorescence of single cells or particles in a stream.

The target of assay [2] is T2, Recombinant human LAG3-His (Sino Biological; catalogue No. 16498-H08H) (human, UniProt P18627 23-450).
T2 construct: also called human LAG3 His-tag protein; CD223
T2 sequence: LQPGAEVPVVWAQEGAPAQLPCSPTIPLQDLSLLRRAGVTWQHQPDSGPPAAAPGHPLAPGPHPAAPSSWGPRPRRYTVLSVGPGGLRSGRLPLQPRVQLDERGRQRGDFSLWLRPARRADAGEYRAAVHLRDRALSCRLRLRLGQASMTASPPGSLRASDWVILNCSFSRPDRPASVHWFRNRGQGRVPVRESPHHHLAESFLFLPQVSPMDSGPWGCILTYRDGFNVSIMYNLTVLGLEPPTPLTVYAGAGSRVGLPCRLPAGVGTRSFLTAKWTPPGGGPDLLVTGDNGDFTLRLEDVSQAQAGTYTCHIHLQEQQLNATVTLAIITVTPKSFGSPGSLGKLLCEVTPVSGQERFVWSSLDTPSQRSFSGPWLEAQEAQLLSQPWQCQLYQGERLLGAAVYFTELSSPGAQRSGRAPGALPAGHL
Kind of assay: SPR (Biacore): antibody captured on anti-human Fc, human LAG3-His in solution. On the technique in general: SPR reads the build-up and loss of mass on a sensor chip optically.

Assay [3] addresses T3, Mouse LAG3 (mouse, UniProt Q61790).
T3 construct: recombinant, His-tagged, coated on a Ni-NTA plate; also called mouse LAG3-His Tag recombinant protein
T3 sequence (antigen, looked up): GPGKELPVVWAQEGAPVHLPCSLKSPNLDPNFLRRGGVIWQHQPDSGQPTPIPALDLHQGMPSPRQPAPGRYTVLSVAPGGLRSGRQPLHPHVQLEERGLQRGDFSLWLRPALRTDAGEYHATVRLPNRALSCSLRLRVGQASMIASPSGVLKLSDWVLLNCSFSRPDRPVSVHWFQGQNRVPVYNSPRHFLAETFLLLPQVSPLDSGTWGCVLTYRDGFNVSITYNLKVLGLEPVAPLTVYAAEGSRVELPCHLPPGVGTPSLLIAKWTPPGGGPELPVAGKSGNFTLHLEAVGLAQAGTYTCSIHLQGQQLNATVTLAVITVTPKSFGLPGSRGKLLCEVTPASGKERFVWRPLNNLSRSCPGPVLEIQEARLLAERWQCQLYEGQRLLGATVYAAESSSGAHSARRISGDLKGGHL
The assay is described as follows: […], antibody ([…]) at 2 µg/mL, […].

For assay [4], the target named is T4, recombinant human LAG3-Fc Tag protein (Sino Biological; catalogue no. 16498-H05H) (human, UniProt P18627).
T4 construct: recombinant, soluble
T4 sequence (fusion chain, looked up): T2 sequence
The assay is described as follows: ELISA: antibody coated at 5 µg/mL captures human LAG3-Fc at 2 µg/mL; how the black bars (LAG3 binding) were detected is not told.

The target in assay [5] is T2, Recombinant human LAG3-His (Sino …). Kind of assay: SPR (Biacore), antibody captured by anti-human Fc, human LAG3-His as analyte, 1:1 model.
For assay [6] the target is unchanged. The assay is described as follows: ELISA: antibody coated at 5 µg/mL, soluble human LAG3-His titrated (x-axis: Human LAG3, µg/ml), OD at 450nm. Background: An ELISA detects its analyte on a solid surface through an enzyme-linked reagent.
For assay [7], the target named is T3, Mouse LAG3. Kind of assay: ELISA: LAG3-His coated at 2 µg/mL on a Ni-NTA plate, antibody (IgG4) at 2 µg/mL, anti-human Fc-HRP, OD at 450nm.

B1: 8D9 (antibody, V domains shown)
VH: QVQLVQSGAEVRKPGSSVKVSCKASGGTFSNYAFSWVRQAPGLGLEWLGAIIPEFDTANYAQKFKDRVTITADDSTTTVYMELSSLRSEDTAVYYCASGMWDYYGSGSSIDYWGQGTLVTVSS
VL: QSVLTQPPSASGTPGQRVTISCSGSNSDIGRNPVNWYHQFPGTAPKLLIFSNSHRPSGVPDRFSGSKSGTSASLAIGGLQSDDEADYYCAAWSDSLNGYVFGTGTKLTVL
notes: also called anti-LAG3 antibody 8D9; Clone 8D9
Consider B1, for which the binding result in assay [1] is given as “binds”; in assay [2], “binds”; with Mouse LAG3 [3], “no binding (tested: 2 µg/mL)”; in assay [4] it was “binds”.

B2: 1C5-3A6 (antibody, V domains shown)
VH: QVQLVQSGAEVKKPGASVKVSCKASGYTLTDYYIHWVRQAPGQGLEWVGWINPNSGGTNYEQKFQGRVTMTWDTSISTAYMELSRLTSDDTAVYYCAREGWSNDWYVGYYFDYWGQGTLVTVSS
VL: DIQMTQSPLSLSASVGDRVSITCRASQYIGTSLNWYEQKPGNSPKLLITGASRLQSGVPSRFSGSGSGTDFTLTINTLQPDDLATYYCHQSYDDPPTFGQGTKLEIK
notes: also called anti-LAG3 antibody 1C5-3A6
Broadly, the Kd is the free concentration of one partner at which half of the binding sites on the other are occupied at equilibrium, for simple one-to-one binding. For orientation: EC50 (read off the curve) means the midpoint of the concentration-response curve. For the molecule B2, the equilibrium dissociation constant (Kd) in assay [5] is 0.0643 nM. Moreover, the binding result with Mouse LAG3 [3] is reported as “binds”. Further, the 50% effective concentration (EC50 (read off the curve)) in assay [6] is around 0.07 µg/mL.

B3: 5C8 (antibody, V domains shown)
VH: QVQLVQSGAEVKKPGASVKVSCKASGYTFTSYGISWVRQAPGQGLEWMGWISAYNGNTNYAQKLQGRVTMTTDTSTSTAYMELRSLRSEDTAVYYCARDSGYDFEDWFDPWGQGTLVTVSS
VL: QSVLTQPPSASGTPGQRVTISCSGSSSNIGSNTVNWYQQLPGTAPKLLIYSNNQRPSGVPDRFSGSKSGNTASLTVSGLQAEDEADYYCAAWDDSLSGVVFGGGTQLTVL
notes: also called anti-LAG3 antibody 5C8
B3: the binding result in the assay with Mouse LAG3 [7] was “no binding (tested: 2 µg/mL)”. The “EC50 (read off the curve)” value in assay [6] is around 0.02 µg/mL.
